Experimental data taken from patent US20030059769A1.

Target: LS-Rg, chimeric protein of the extracellular domain of human L-selectin joined to the Fc domain of a human G2 immunoglobulin (human) (UniProt P14151)
Assay: competition of unlabeled antibody against radiolabeled 2'-F RNA ligand LF1807 on purified LS-Rg

Chain of LS-Rg, chimeric protein of the extracellular domain of human L-selectin joined to the Fc domain of a human G2 immunoglobulin (human) (P14151 39-332, stated change not applied): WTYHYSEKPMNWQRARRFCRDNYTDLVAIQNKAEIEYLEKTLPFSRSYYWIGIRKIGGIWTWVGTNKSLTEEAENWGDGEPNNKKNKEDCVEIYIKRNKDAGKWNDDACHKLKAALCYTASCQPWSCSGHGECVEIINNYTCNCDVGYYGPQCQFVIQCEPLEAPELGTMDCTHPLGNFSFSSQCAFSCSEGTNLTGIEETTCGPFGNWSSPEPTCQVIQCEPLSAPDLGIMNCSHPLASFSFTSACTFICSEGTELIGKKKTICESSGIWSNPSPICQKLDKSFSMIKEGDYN

concentration for complete inhibition: 300 nM
Substance: DREG-56, L-selectin specific blocking monoclonal antibody
